Earlier results on one substance are cited in paper PMC4865444.

pKd: −log10 of the molar value.

Series [1] has as its target Nef SF2 (Human immunodeficiency virus 1) (UniProt P03407).
In series [2] the target is Nef NL4-3 (Human immunodeficiency virus 1) (UniProt P04324).

Sequence of UniProt P03407 (P03407 2-210): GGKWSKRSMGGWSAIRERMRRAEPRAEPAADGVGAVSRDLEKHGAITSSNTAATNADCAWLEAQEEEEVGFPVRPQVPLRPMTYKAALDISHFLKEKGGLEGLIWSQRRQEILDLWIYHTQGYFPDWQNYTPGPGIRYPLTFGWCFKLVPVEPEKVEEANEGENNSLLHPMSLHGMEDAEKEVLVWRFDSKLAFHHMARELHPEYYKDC

For orientation: pKd means −log10 of the Kd, conventionally taken in molar units. In the case of Hck SH3 (from UniProt P08631), the negative logarithm of the Kd (pKd) was 6.19 in series [1] and 5.85 in series [2].
